One substance from article PMC5542595 can be followed below.

The target of this assay is Leptospira interrogans heme oxygenase, wild type, ferric heme complex (Leptospira interrogans). Put plainly: cross-linking.

Turning to “Leptospira interrogans ferredoxin-NADP+ reductase, wild type (enzyme)”, the stoichiometry N (usually a count of units in the complex or per binding partner) came to 1.
